Experiments:
[1] = tested on: T1, Gly-Asp-Asp-Asp-Asp-Lys-β-naphthylamide
T1 sequence: GDDDDK

[2] = tested on: recombinant fusion protein of Medaka trypsinogen

Medaka EP-2 serine protease domain
enzyme activity for GD4K-βNA [1]: Both enzymes showed maximal activities for GD4K-βNA at pH 8 | conversion of trypsinogen to active trypsin [2]: The trypsinogen was converted to active trypsin by EP-1 faster than by EP-2
